The sequences below were run on Saccharomyces cerevisiae (assay: transcriptional activation domain activity (GFP:mCherry ratio, weighted mean of sorted bins, harmonized to initial dataset scale) (arbitrary fluorescence ratio units); higher = stronger transcriptional activation). Conditions: beta-estradiol 1 µM; induction time 4 h.
Outline: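 Values are activation activity, found as the read-weighted mean of bin median fluorescence, averaged across barcodes and then mapped linearly onto the initial dataset scale. Barcoded protein tiles fused to an estradiol-inducible synthetic transcription factor were integrated at the URA3 locus of GFP-reporter yeast diploids. Cells were induced for 4 hours at 30 °C with 1 uM beta-estradiol in SC, sorted into 8 bins by GFP:mCherry ratio, and barcode-sequenced, with tiles under 50 reads discarded.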

| Sequence | transcriptional activation domain activity |
| --- | --- |
| MAEDSDPSADGGLPMPYSCYECRNRKLKCDRRKDGCSRCAQAGGKCHYPTSRK | 48800 |
| MAEEQPAKPKKHRAAKPKVSTGCVTCKQRRIKCGEEKPHCMRCVKTGRECGGY | 41800 |
| MAEKRATSTAPGPSTSLQRGKACLRCRKRKMRCDGSKPACQQCVRAKKADGCE | 21500 |
| MAERNLTLFSSFFFFLLFFFFFFFFFLEDVFLFFLRMLFTFVGSWFFFFFSYL | 7100 |
| MAETTTSDSGASSSTALQRGKACLRCRKRKMRCDGQKPACSQCVKARKTDACE | 34100 |
| MAFCSIPFYSPPPPQFRFISTFSPFPRFIIGPLFHPLLARKLFDFLLIFIVSF | 62700 |
| MAFFYLCYIIISLVLYLFFLCSSFCCFMIHEFSLLSSLSQFSQRVYIGWSFFR | 58300 |
| MAFGAVLGLFICDADKVVRADGSRIILMKHPSWKTEIVGLWQTLIAEPWIIML | 51400 |
| MAFKLSTAEKVYLALRLTLLTPFHILTSLIRSFILSLSRGLPPRLFWVCAVLR | 49500 |
| MAFLYLELPLVGMTFGGGRRGWGFMYLFLFLSFSFFFIQLWFGLVWVMTLCEV | 63600 |
| MAGAVPVLMLILLLLSHLCTAFKFYSESGFALVRKILLTALPTFEPHHYQMDG | 71600 |
| MAGAVPVLMLILLQLSHLCTAFKFYSESGFALVRKILLTALPTFEPHHYQMDG | 64300 |
| MAGDDEEGRDADGEPDNAATPAKRQRVSRACDQCRAARERCDGKPQCHPCVSQ | 34100 |
| MAGENGGLGAFRDGSADGVGRGADLVSSLEQTRGYQMEMFQESLRRNIIVAMD | 62800 |
| MAGIVTRVCLILCSPLFPLSLRNFIILHCVYLPLSNSWYISPPFLLYCLQTVY | 62700 |
| MAGQNNPFVGAVFSGLFLGYMILAAALSIFFLLYFNRVFASIVSWGIRAWTWR | 31200 |
| MAGRKRAAAEDTTEKRETRSSKVAKTEGTKTAGKAAKGTARLKARLIISLTIL | 34500 |
| MAGSFFFSFFFLSLFMLFHFLSLSFLIFFFLSSLSSFAFLLLLISPFGPPNPH | 54400 |
| MAGVGYYDLKQLMMVFLLVWLLAICVGPWYQGCFSPSFLLFCFYQPYIFISFL | 52900 |
| MAHLAYHPLYPLWDLLSHTLIMLIFLITLICLLCPFPSLFIFTPICLSVYLLI | 27200 |
| MAHRFWTLQLFGNIYIIQFLGCIGFGLSLWILMHLINMIEVRNQTIQLSMLFA | 62800 |

| Sequence | transcriptional activation domain activity |
| --- | --- |
| MAIDCLALHIPTCVNLWGHVLYVQLVTVMYPSHFFFSFYFIFIFILFLFFLFF | 14300 |
| MAIDIFFCLAVHIPTCVNLWGHVRTILYVQLVTVMYPSHFLFYFLFLLFYFFL | 34200 |
| MAIFRIYVLIAVVRLGDILTDIYVVGGVLLLLRYQVFLMFFHFFFFLFFYTGL | 43700 |
| MAIGLSACSILFLFSFTCVFFSFLSCLFLHPFFFLSFLFSLSLSLSLFFFFFA | 66200 |
| MAIQAFFVICIIKILLYFLFFFFLFLSLLLYTYMYIHICAYVFYKIEKHVKSM | 51000 |
| MAITHAALPPMCRISLIRVWIETMLYGFNCVMYGLCMFIPVEGRLLLCWMLIV | 50700 |
| MAIYEAASTPGSSAGSHADKPYHSKRPHRKSRKGCRTCKARKVKCDEVRPSCT | 27900 |
| MAKCIVTQTFLAASKTKTGYTIHQIRYTMTFWEIYENLLAIYLLIHPQWHLSF | 40200 |
| MAKGGAKDKKSVEKKGADKGKGKSDEAADKGSKGKGGLKAATAVNVRHILCEK | 23500 |
| MAKKASGSADKKTADKGDKKGKAKPTADDGEDKQSKGKGALKAATAVNVRHIL | 44600 |
| MAKKASGSAEKKGGDKADKKGKAKAKADDSDVEDKGSKGKGALKAATAVNVRH | 9660 |
| MAKKGSASTDKKAADKSDKKGKAKATTDDGEEKQAKGKGSLKAATAVNVRHIL | 36900 |
| MAKLRELMKKLEEEVVGEDGEKRMVQPTIMQEPFRSFFRTAVSVYLPNVLGAK | 52600 |
| MAKSDPHQPGRIRAFKPKVSTGCKTCKIRRVKCDEAKPACKRCSSTGRKCDGY | 16300 |
| MAKTRLIETIHTAFCIEFIYQYLIIGYGNPLVLAQIHWSVVCLLACTLLIVFL | 55500 |
| MALASPVFFFFYLYFIILLFGVGIYLFTFVMSYHTMVMQIIHVSCYNHRYIPV | 47200 |
| MALEFLMDDIHLNKFLLLGYGVISKFLIVCHRYSKVVGETYYVIHTGIFYLLG | 56200 |
| MALEQRCQPTCEAVLLFLLLLFLPLWLLFERFKNLLLLLWPLFFFFFLLLLLW | 35100 |
| MALFLGCIDFGQYKLNLEKYSGWLTIPLVPSEQALFYHTVKIIYSIFLHPLRN | 66500 |
| MALFLSIFLLFFFLLYLSQITHFHGILFCFFLLCAPCLYIPDSCNPLIQPLFP | 35300 |
| MALFRALPLKIRNLIYLKLLNVSPLWISPIWIITDYYKERPIPLLKGLSLFLV | 45400 |

| Sequence | transcriptional activation domain activity |
| --- | --- |
| MALHALLHLLNVYYQGCLPYNVLVITVCTMLYKLFFSKSFYCRFRRFGRPWYL | 54300 |
| MALIAFFLLFYLINLLYSLKLFLQYFFFTFTIPYLYIAYAFFFILYSLFLVFS | 42900 |
| MALKAREELEEIYGMPVIYIPVFISCMHRINAVLLSLGNFLLISGAYLRSSFV | 53200 |
| MALLSQVARLLGSFLCVAISCFGRLALLFLWLILAYFTFWSFFSGNLPICFCL | 59300 |
| MALNLFQKEIFLILFLLFYYFAILLFCYFIILLFCYLIFLFFLFHLSLSSLIF | 26300 |
| MALPKDRDEEKEDEKDNAPKKGKRGPRKRVSQACDRCRTRKDKCDGKKPSCST | 20800 |
| MALPLHFRYVSVTFIFLASFFWPVGFFSFFSLFFPATNSFLLFLSAFFRLVLF | 54100 |
| MALPVIFLFFLHVNILLLCRRFLLVFFLLLVFFLLLVFFFLLLVFFLLLVFLL | 66200 |
| MALYLTFRHCPELFYWVKLRRVSRKIHTFISSIFNIFLYVLMLMNGCIIHHYI | 57200 |
| MAMGLMCKACLLTPQHFLPLLWPSYPRPFFFFFFFYYSYCCSCCDCISIFGLN | 43400 |
| MAMGYMRFCALAISILLFREGKELTQRGSCGCLIYVCVRLEVGYYRLVFLIGY | 54700 |
| MAMTPVRGEGNDGYRTSDGEMESGGTRAQGKVIQRSRWVASSHIVAPAEVEKP | 27500 |
| MAMVRCMDLYNLDGNGMGKFYTWQFFPFFRFWFLPVCMLLLPFVLVSCLAFFI | 58400 |
| MANHQLYTDWLYLWWIAYTNKMAGHVYIILKESLKNIPLIGWGAQFYNFIFLA | 54800 |
| MANVRFFVGLQRLFPFLAFHHLLMLCHIIVIILLSILLAGCSSYSSMINVYIL | 70400 |
| MAPAPAPVAAPPAPETREAPPASPRGRSRSRSRSPAFRRPSPPAPRRPVGAPA | 29100 |
| MAPCIPVMYLSVSSTSFLFLSFFILGWWILFSFTIFPATNSFLCFWAPFFFSH | 46100 |
| MAPETADKPSRRRHIKSRSGCKNCKKRKVKCGEERPSCRNCSRRGSLCDLADE | 20400 |
| MAPETKNKKRKSGVTASSPSTKKLKKAEAPVAEEAPAPVKSTKKSKAAAPKAE | 43300 |
| MAPFSPFVYFFLFLVHNSWLFCFLLVCFPFFSILVFLSFCPFLSPFTSRFSFL | 56600 |
| MAPKAPEASPPKRGRGRPRKAESEKKTKAYEPTGRPRGRPKGSGGVKKSVAAT | 19600 |

| Sequence | transcriptional activation domain activity |
| --- | --- |
| MAPPFLGHFFGLYPSIMIRFPCLLLYRFATVYLGVLLFPFSILFFILFIFYFF | 34200 |
| MAPPTSKTTPDSPDSGAPRKRRRTALACEECRDRKRKCDGVKPVCGACKTRPA | 21900 |
| MAPQRRPAAEVISSDSDDEAARPTGSAATRSAGGGGAGGGRRIVLTGRGNNSS | 20400 |
| MAPSASAGGSGAAKPKKTRAKHACRECNSRRVKCNVTERQPCTNCAASGATCE | 11700 |
| MAPTKAVAPAPAAAADGTVKRGRGRPPKDPSERKPKPEPSGRPRGRPKGSGGV | 33400 |
| MAPTTPTNSNGETPVKRGRGRPPKPEHEKKLKPAPSGRGRGRPKGSGVKKTGG | 39100 |
| MAPVTQTEWPRQRALHSKSRNGCTTCKQRRVKCDEGKPVWPSAARTAGADRSS | 50600 |
| MAPWDDAPAPFAADGDADDVTGSELAERFNKESGKVNAQLSAFPSALLCGRDK | 61900 |
| MAQTTPESASSSQSTLARGKACLRCRKRKMRCDGAKPACGQCVKAHKPDACQY | 24400 |
| MAQVAVFLVHKVLYGIIPLFEIQTCAYFPLLVSLWHLNYMLFYVVMFMRLIIL | 45300 |
| MAQVAVFVVHKFLYGIIPLFEISTCAYFPLLVSLWHLNYLLFYAVMFMRLIIL | 75000 |
| MARAKPTRIVESDEDDSDSGQLSSAPAKRKAGSEDANPAAKRARTASAKQKQL | 63000 |
| MARCYRLVMCFPFSLCFEYSALILTCSFFSPFIPFRLWCHAVPCGSGVFLFLH | 65700 |
| MARLHIGQLCSRSFFYALLVLSTWSSKLVYLWPHLTSSLPPLLIVLYIPTFLL | 72900 |
| MARLLFIPIFVNLSFPHHKSYFFLTSMLTLLLQLYLLLSLCWLILLLPCLKDS | 40400 |
| MARNIYVIYIPKSICCSLPLSVPLSLLPLPSLPLFPSLTSTLLFFVLFHFFLL | 49600 |
| MARQLYSPFFIFLYLPSCIYKNILFSSFLFFLTSLIGIFLHPFFNIVCFICQM | 58500 |
| MARQPSAPNAASDRGAATTTPRKPTTRSRTGCSACRKRRTKCDEARPACGHCV | 44600 |
| MASALLDFPYLHLGIPSFLRVNLFLNIHVHFFFVHFCLSPSVRFIFFYFFLYL | 50300 |
| MASASLASKQSIRPHRKSRTGCSTCKRRKVKSLAVVGAGLGRSGQVTAGSPTG | 54100 |

Source: the supplement of paper PMC12636428
